Test results as given in patent US20250295803A1, “5T4 ANTIBODY-DRUG CONJUGATES AND USES THEREOF” (EXELIXIS, INC., priority 2022, published 2025).
Positions count from the first letter of the chain named.

T1: unconjugated human TPBG/5T4 protein with a c-terminal polyhistidine and Avi tag (AcroBiosystems Cat. No. … (human, UniProt Q13641 32-355))
T1 construct: Bought protein; also called Acro TPGH52E5; Acro Catalog No. TPGH52E; not shown: C-terminal polyhistidine and Avi tag
T1 sequence: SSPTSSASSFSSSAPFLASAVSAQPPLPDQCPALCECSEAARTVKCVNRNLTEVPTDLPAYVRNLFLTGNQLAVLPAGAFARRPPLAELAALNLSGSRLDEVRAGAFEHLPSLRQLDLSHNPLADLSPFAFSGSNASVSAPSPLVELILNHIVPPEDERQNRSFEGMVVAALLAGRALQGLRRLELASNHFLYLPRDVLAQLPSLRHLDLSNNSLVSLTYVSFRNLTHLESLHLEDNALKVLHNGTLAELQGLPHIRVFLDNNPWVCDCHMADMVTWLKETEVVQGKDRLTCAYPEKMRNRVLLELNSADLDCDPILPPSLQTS

T2: human 5T4 (Homo sapiens, UniProt Q13641)
T2 sequence (Q13641 32-355 limits assumed): T1 sequence

B1: mAbA17 (antibody, V domains shown)
VH: EVQLVESGGGLVQPGGSLRLSCAASGFTFSRYWIHWVRQAPGKGLEWVAAIFPYSGSTLYADSVKGRFTISADTSKNTAYLQMNSLRAEDTAVYYCARSPSRSILPSGLDYWGQGTLVTVSS
VL: DIQMTQSPSSLSASVGDRVTITCRASQSVSSAVAWYQQKPGKAPKLLIYSASSLYSGVPSRFSGSRSGTDFTLTISSLQPEDFATYYCQQGDGSPYTFGQGTKVEIKR
notes: also called Antibody mAbA17
B2: mAbA4 (antibody, V domains shown)
VH: EVQLVESGGGLVQPGGSLRLSCAASGFTFSRYYIHWVRQAPGKGLEWVAFISPGGSYTYYADSVKGRFTISADTSKNTAYLQMNSLRAEDTAVYYCAREYYSMGVLDYWGQGTLVTVSS
VL: B1 VL with G91A, D92Y, G93E
notes: also called Antibody mAbA4
B3: mAbA15 (antibody, V domains shown)
VH: EVQLVESGGGLVQPGGSLRLSCAASGFTFSSYYIHWVRQAPGKGLEWVAYITSTGSYTEYADSVKGRFTISADTSKNTAYLQMNSLRAEDTAVYYCARYDRSTRYSGLDYWGQGTLVTVSS
VL: B1 VL with G91A, D92Y, G93A, S94T, Y96V
notes: also called Antibody mAbA15
B4: mAbA4: 5T4 antibody comprising VH of SEQ ID NO:25 and VL of SEQ ID NO:26 (antibody, V domains shown)
VH: B2 VH
VL: DIQMTQSPSSLSASVGDRVTITCRASQSVSSAVAWYQQKPGKAPKLLIYSASSLYSGVPSRFSGSRSGTDFTLTISSLQPEDFATYYCQQAYESPYTFGQGTKVEIK
modifications: Antibody mAbA4 VH Sequence; Antibody mAbA4 VL Sequence
B5: mAbA15: 5T4 antibody comprising VH of SEQ ID NO:44 and VL of SEQ ID NO:45 (antibody, V domains shown)
VH: B3 VH
VL: B4 VL with E93A, S94T, Y96V
modifications: Antibody mAbA15 VH Sequence; Antibody mAbA15 VL Sequence
B6: mAbA17: 5T4 antibody comprising VH of SEQ ID NO:62 and VL of SEQ ID NO:63 (antibody, V domains shown)
VH: B1 VH
VL: B4 VL with A91G, Y92D, E93G
modifications: Antibody mAbA17 VH Sequence; Antibody mAbA17 VL Sequence

target: T1, unconjugated human TPBG/5T4 protein …; test: Octet, antibody on AHC sensors, human 5T4 in solution (monovalent); Acro TPGH52E5 Lot B465-87AF1-K2; details: not given
Description: (§1) Monovalent binding assays were employed to determine the relative affinity of each 5T4 binder obtained by the phage display in Example 1 to human 5T4. Human 5T4 was purchased from Acro Biosystems (Acro Catalog No. TPGH52E) and also produced separately. The monovalent interaction of binders to human 5T4 was monitored using an Octet (Pall ForteBio) instrument. For these assays, 36 nM antibody was immobilized on anti-human Fc (AHC) sensors in 1× kinetic buffer (ForteBio). The sensors were then dipped in wells containing a 3× serial dilution of human 5T4 ranging from 1 μM to 1.37 nM. The association was allowed to reach equilibrium. Sensors were then moved to wells containing only 1× kinetic buffer and allowed to dissociate to equilibrium. Association and dissociation rates were measured and from these, monovalent KDS were calculated using the onboard analysis software (ForteBio).

Molecule | Kd [nM]
B1 | 2.81
B2 | 0.01
B3 | 3.62

target: T2, human 5T4; test: Octet monovalent binding affinity assay; design: polyhistidine (C); Avi tag (C); purchased Acro Biosystems TPGH52E; details: in all three lots of human 5T4
Description: as §1

Molecule | monovalent binding strength
B4 | strong or moderate binding
B5 | strong or moderate binding
B6 | strong or moderate binding

target: T1, unconjugated human TPBG/5T4 protein …; test: ELISA on coated human 5T4 His-Avi (Acro TPG-H52E5); antibody condition: PBS Time 0; details: not given
Description: (§2) A. Normal Binding Unconjugated antibodies were tested for their ability to bind to human 5T4 (hu5T4) using ELISA. On Day 1, unconjugated human TPBG/5T4 protein with a c-terminal polyhistidine and Avi (AVITAG™) tag (AcroBiosystems (Newark, DE, USA), Cat. No. TPG-H52E5) was diluted 2 μg/mL in PBS, mixed thoroughly, plated 100 μL per well in a 96-well plate (Nunc MAXISORP®) and incubated overnight at 4° C.
3. Oxidative Stress. Several unconjugated antibodies were tested for their ability to bind to 5T4 using ELISA in an oxidative environment. Solutions of 1 mg/mL to 10 mg/mL of antibody in 20 mM citrate/50 mM NaCl at a pH of 5.5 were prepared and stored at 37° C. for 1 to 2 weeks.

Molecule | EC50 [nM]
B1 | 0.198
B2 | 0.182
B3 | 0.229

target: T1, unconjugated human TPBG/5T4 protein …; test: ELISA on coated human 5T4 His-Avi (Acro TPG-H52E5); antibody condition: pH 5.5 Day 4; details: not given
Description: as §2

Molecule | EC50 [nM]
B1 | 0.157
B2 | 0.125
B3 | 0.123

target: T1, unconjugated human TPBG/5T4 protein …; test: ELISA on coated human 5T4 His-Avi (Acro TPG-H52E5); antibody condition: pH 8.5 Day 0; details: not given
Description: as §2

Molecule | EC50 [nM]
B1 | 0.153
B2 | 0.12
B3 | 0.134

tested on: not listed separately; test: Hydrophobic interaction chromatography (HIC) developability; assay type: physicochemical; details: 1 mg/mL in Dulbecco's PBS pH 7.4
Description: (§3) Antibodies that were selected for binding to 5T4, such as those described in Examples 2 and 3, were tested by various methods to assess developability. For example, various chromatographic methods, including size exclusion chromatography (SEC), hydrophobic interaction chromatography (HIC), and standup monolayer adsorption chromatography (SMAC) were employed to assess factors, such as monomer percentage, solubility, and antibody aggregation or precipitation.
Hydrophobic interaction chromatography (HIC) analysis was performed using a 4.6 mm ID×3.5 cm TSKgel Butyl-NPR column (Tosoh Bioscience LLC, PN 14947) on an Agilent 1100 HPLC. Antibodies were normalized to 1 mg/mL concentration in Dulbecco's PBS (pH 7.4, without Ca^2+/Mg^2+). The column was equilibrated with 100% mobile phase Buffer A (2 M ammonium sulfate/20 mM sodium phosphate, pH 7.0) at a flow rate of 1 mL/minute at ambient temperature. For each sample, 10 μL was loaded and eluted using a gradient from 100% mobile phase buffer A to 100% mobile phase buffer B (20 mM sodium phosphate, pH 7.0) at 1.0 mL/minute over 15 minutes, held at 100% B for 3 minutes to wash the column, and returned 100% A for 2 minutes for equilibration. Absorbance was monitored at 280 nm. Sample retention time was calculated and compared to a set of standard controls to identify antibodies with increased retention time (increased hydrophobicity) and the presence of multiple species. Data analysis was performed using Agilent ChemStation B.04.03 SP1

Molecule | developability based on HIC analysis
B4 | strong developability
B5 | strong developability
B6 | strong developability

tested on: not listed separately; test: Standup monolayer adsorption chromatography (SMAC) developability; assay type: physicochemical; details: 1 mg/mL in Dulbecco's PBS pH 7.4
Description: as §3
Standup monolayer adsorption chromatography (SMAC) analysis was performed using a 4.6 mm ID×300 mm Zenix SEC 300 column (Sepax Technologies, PN 213300P-4630) with a 4.6 mm×50 mm guard column (PN 213300P-4605) on an Agilent 1100 HPLC. Antibodies were normalized to 1 mg/mL concentration in Dulbecco's PBS (pH 7.4, without Ca^2+/Mg^2+) and clarified via centrifugation to pellet particulates while still retaining soluble aggregates. The mobile phase buffer was Dulbecco's PBS (pH 7.4, without Ca^2+/Mg^2+) at 2× concentration (diluted from 10× stock concentration). For each sample, 10 μL was loaded and isocratically eluted at 0.4 mL/minute over 32 minutes at ambient temperature. Absorbance was monitored at 280 nm. Sample retention time was calculated and compared to a set of standard controls to identify antibodies with increased retention time (increased propensity to form aggregates and/or increased hydrophobic/electrostatic interactions) as the column stationary phase along with mobile phase selection promotes secondary interactions in addition to molecular sizing. Data analysis was performed using Agilent ChemStation B.04.03 SP1.

Molecule | developability based on SMAC analysis
B4 | strong developability
B5 | strong developability
B6 | strong developability
